# Target: S2A4 (human)
# Experiment: BLI
# S2A4 (human), sequence (heavy, as listed by the source, chain 1 of 2): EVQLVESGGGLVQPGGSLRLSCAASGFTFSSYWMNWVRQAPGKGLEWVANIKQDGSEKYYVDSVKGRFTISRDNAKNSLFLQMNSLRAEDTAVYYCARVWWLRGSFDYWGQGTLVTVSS
# S2A4 (human), sequence (light, as listed by the source, chain 2 of 2): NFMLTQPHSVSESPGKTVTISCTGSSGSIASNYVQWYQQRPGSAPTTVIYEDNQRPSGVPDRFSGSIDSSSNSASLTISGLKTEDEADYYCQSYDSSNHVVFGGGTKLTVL
row,Substance,Kd [µM]
1,Omicron-(L371S+F375S) RBD (from UniProt P0DTC2 319-541) (domain or fragment),0.0752
2,Omicron-(L371S+P373S) RBD (from UniProt P0DTC2 319-541) (domain or fragment),0.0894
3,Omicron-(P373S+F375S) RBD (from UniProt P0DTC2 319-541) (domain or fragment),0.0386
